Data published in US20170253633A1 (IMMATICS BIOTECHNOLOGIES, published 2017).
Non-standard residues stand in square brackets, D forms with d. No end group written: not given here. pT = C[C@@H](OP(=O)(O)O)[C@H](N)C(=O)O

Each binder was assayed against T1, HLA-A*02:01 (human) (assay: UV-ligand exchange + anti-b2m ELISA; ++++ = peptide exchange yield >75%).
T1 construct: MHC monomer first loaded with a UV-sensitive peptide, which is cleaved by UV and exchanged with the test peptide; captured on streptavidin plates; also called peptide-receptive MHC molecules
Description: (§1) Candidate peptides for T cell based therapies according to the present invention were further tested for their MHC binding capacity (affinity). The individual peptide-MHC complexes were produced by UV-ligand exchange, where a UV-sensitive peptide is cleaved upon UV-irradiation, and exchanged with the peptide of interest as analyzed. Only peptide candidates that can effectively bind and stabilize the peptide-receptive MHC molecules prevent dissociation of the MHC complexes. To determine the yield of the exchange reaction, an ELISA was performed based on the detection of the light chain (β2m) of stabilized MHC complexes. The assay was performed as generally described in Rodenko et al. (Rodenko et al., 2006).
(§2) 96 well MAXISorp plates (NUNC) were coated over night with 2 ug/ml streptavidin in PBS at room temperature, washed 4× and blocked forth at 37° C. in 2% BSA containing blocking buffer. Refolded HLA-A*02:01/MLA-001 monomers served as standards, covering the range of 15-500 ng/ml. Peptide-MHC monomers of the UV-exchange reaction were diluted 100 fold in blocking buffer. Samples were incubated for 1 h at 37° C., washed four times, incubated with 2 ug/ml HRP conjugated anti-β2m for 1 h at 37° C., washed again and detected with TMB solution that is stopped with […]. Absorption was measured at 450 nm. Candidate peptides that show a high exchange yield (preferably higher than 50%, most preferred higher than 75%) are generally preferred for a generation and production of antibodies or fragments thereof, and/or T cell receptors or fragments thereof, as they show sufficient avidity to the MHC molecules and prevent dissociation of the MHC complexes.

| Binder | peptide exchange yield [%] |
| --- | --- |
| YLIGQHVTA (gene: FBXO21) | > 75 |
| RLLELLQEA (gene: PROM2) | > 75 |

Now from value to binder:

| peptide exchange yield [%] | Binder |
| --- | --- |
| > 75 | SLVDARFQL (gene: OSR1) |
| > 75 | GLYSGEVLV (gene: WDR34) |

These binders were tested against T1, HLA-A*02:01 (assay: UV-ligand exchange + anti-b2m ELISA; ++ = peptide exchange yield >20%).
Description: as §1, §2

| Binder | peptide exchange yield [%] |
| --- | --- |
| L[pT]LAKLEKV (gene: C9orf156) [LULAKLEKV] | 20 to 50 |
| LLSEDFVSV (gene: SPATA20) | 20 to 50 |

Now from value to binder:

| peptide exchange yield [%] | Binder |
| --- | --- |
| 20 to 50 | IIDSSPTAL (gene: ATAD5) |
| 20 to 50 | KLAEISLGV (gene: DSG3) |
